Data reported in patent US6753157B2, “Quantitation of individual protein kinase activity” (Promega Corporation, priority 1994, dated 2004).
Ends that are not written are not given here. * marks the point of attachment. biotin C6 = biotin C6 moiety, O=C(CCCC[C@@H]1SC[C@@H]2NC(=O)N[C@@H]21)NCCCCCC(=O)*

What was measured:
[1] = tested on: Ca2+ and phospholipid dependent protein kinase (PKC); experiment: Protein kinase activity of Ca2+ and phospholipid dependent protein kinase with biotinylated neurogranin(28-43), streptavidin-linked disk, 32P; format: biochemical
Protocol: The protein kinase activity of Ca^2+ and phospholipid dependent protein kinase activity (PKC) was determined in a similar manner to that of PKA described above, except that the biotinylated peptide substrate was a derivative of neurogranin; namely, biotinylated neurogranin(28-43) Chen, S-J, et al., 1993.
The peptide was modified by the addition of biotin containing moiety: *-Ala-Ala-Lys-Ile-Gln-Ala-Ser-Phe-Arg-Gly-His-Met-Ala-Arg-Lys-Lys (Promega Peptide B, SEQ. ID. 2, Mol.Wt. is 2139.6), and was used at a concentration of 100 μM. The enzyme (#V5261, Promega Corporation) was diluted 5× in 100 μg/ml of BSA.
The kinase activity of the […] was determined in a reaction volume of 50 μL consisting of 40 mM Tris. HCl, pH 7.4, 10 mM MgCl2, BSA at 100 μg/ml, and 100 μM of τ-^32P-ATP (sp.act. of 100 cpm/pmol). The activity was determined in the presence and absence of 100 μg/ml of phosphatidylserine, 10 μg/ml of diacylglycerol and 0.4 mM calcium chloride. Reaction was started with the addition of 5 μL of the enzyme and incubated at 25° C. After specified periods of time, reactions were terminated by the addition of 10 μL of terminating solution (see above). Twenty-five μL aliquots were aliquoted on disks and the disks were processed as described above for PKA.

[2] = tested on: T1, biotinylated Promega Peptide A (*-Leu-Arg-Arg-Ala-Ser-Leu-Gly)
T1 sequence: LRRASLG

[3] = tested on: T2, biotinylated neurogranin(28-43) (Promega Peptide B, *-Ala-Ala-Lys-Ile-Gln-Ala-Ser-Phe-Arg-Gly-His-Met-Ala-Arg-Lys-Lys)
T2 sequence: AAKIQASFRGHMARKK

[4] = target: T3, cAMP-dependent protein kinase (PKA) (Bos taurus, UniProt P00517); experiment: Kinase activity of cAMP-dependent protein kinase with biotinylated peptide substrate, streptavidin-linked disk, 32P; format: biochemical; details: PKA 2 Kemptide units per reaction, 100 μM ATP, 37° C., FIG. 3
T3 construct: V5161 (general description)
Protocol: The kinase activity of cAMP-dependent protein kinase (PKA) was carried out in duplicates at each of the various peptide substrate concentrations, in a reaction volume (50 μL) containing 40 mM Tris HCl, pH 7.4, 20 mM MgCl2, 100 μM τ-^32P-ATP (sp.act.of 100-200 cpm/pmol), 100 μg/ml of bovine serum albumin (BSA), and the appropriate biotinylated peptide substrate: *-Leu-Arg-Arg-Ala-Ser-Leu-Gly (Promega Peptide A, SEQ. ID. 1, M.Wt of 998.4).
The reaction was started by addition of the appropriate amount of enzyme (Promega #V5221) to give 2 Kemptide units and incubated for 0, 5, and 10 minutes at 37° C. (one Kemptide unit is defined as the amount of enzyme required to catalyze the incorporation of 1 pmol of phosphate into Kemptide substrate in 1 minute). At specified periods of time at the appropriate temperature, the reaction was terminated with the addition of 10 μL of terminating solution as described above.
Twenty-five μL aliquots were withdrawn and spotted in a 12.5 mm (i.d.) streptavidin-linked disk (0.5 mg of streptavidin/disk) and placed in 2M NaCl-containing beaker. After one minute of gently swirling the beaker at room temperature, fresh NaCl was added. This washing procedure was repeated 5 more times at one minute each. […]
Enzyme activity was calculated by determining the radioactivity via liquid scintillation spectrometry. […]

*-Ala-Ala-Lys-Ile-Gln-Ala-Ser-Phe-Arg-Gly-His-Met-Ala-Arg-Lys-Lys ({biotin C6}-AAKIQASFRGHMARKK) [Promega Peptide B, N-terminal Biotin C6 neurogranin-derived peptide substrate for PKC]
substrate concentration at which enzyme activity reached a maximum ([1]; PKC, 25° C., FIG. 7): around 100 μM
PKC activity relative to activity assayed with the phosphocellulose paper method ([1]; biotinylated substrate/streptavidin matrix versus unmodified peptide/phosphocellulose paper): 6-7 fold

cAMP-dependent protein kinase (PKA), purified enzyme (Promega #V5221)
Km (kinase activity, 32P incorporation into biotinylated peptide captured on streptavidin disks) [2]: a Km Value for the substrate of 33 µM

Ca2+ and phospholipid dependent protein kinase (PKC) (#V5261, Promega Corporation)
substrate concentration at which kinase activity reached a maximum [3]: the activity of the enzyme reached a maximum around 100 µM of modified substrate

*-Leu-Arg-Arg-Ala-Ser-Leu-Gly ({biotin C6}-LRRASLG) [Promega Peptide A, N-terminal Biotin C6 peptide substrate for PKA]
Km [4]: 33 µM
Vmax value [4]: 1.45 pmol/min
